# Literature values in article PMC3633488.
# pKd: −log10 of the molar value.
# Target: FGF-2 (Homo sapiens) (UniProt P09038)
substance,measurement,value
perlecan (from UniProt P98160),pKd,7.15
